Experiment: In vivo evaluation of HIP-PBCA nanoparticle delivery of dalargin to the brain, intravenous
Conditions: mouse, i.v., 20 minutes following injection, LC-MS-MS
Description: The ability of the HIP-PBCA nanoparticles to deliver their peptide load to the brain was determined in vivo in the mouse model. HIP-PBCA nanoparticles containing encapsulated dalargin using the HIP process were compared to HIP-PBCA nanoparticles that had had the peptide adsorbed onto the particle surface as reported by Kreuter et al. The nanoparticles were prepared for brain delivery via the intravenous route by coating their surface with polysorbate 80 surfactant. Briefly, the nanoparticles were incubated in PBS containing 1% w/v surfactant for 30 minutes prior to injection. The surfactant has been reported in the literature to indirectly target the nanoparticles to the brain by promoting adsorption of serum apolipoproteins onto the nanoparticle surface. This allows the particles to bind to the apolipoprotein receptor on the blood brain barrier and transcytose to reach the brain. The following formulations were compared: • 1. HIP-PBCA nanoparticles alone (5:1 HIP content) • 2. HIP-PBCA nanoparticles alone (10:1 HIP content) • 3. Dalargin in solution (2.0 mg/kg) • 4. HIP-PBCA nanoparticles with dalargin adsorbed onto the surface (2.0 mg/kg total dose used in formulation) • 5. […]
The mice were sacrificed at 20 minutes following injection, and the brains and blood samples collected and analysed for the presence of peptide by LC-MS-MS. […]

dalargin (YAGFLR; Humanised sequence of mus musculus and homo sapiens) [9: YAGFLR]
Dalargin levels in the brain (detectability): detectable in the brain only when encapsulated within the particles using the HIP process

Reference: patent publication US20110059142A1, “ENCAPSULATION OF BIOLOGICALLY ACTIVE AGENTS” (priority 2008, published 2011)
